According to the supplement of paper PMC9112550, “Optimization of the antimicrobial peptide Bac7 by deep mutational scanning” (BMC Biology, 2022):

system: Escherichia coli TOP10; assay: shrunken log2 fold change of peptide-encoding DNA abundance (4.5 h post-induction vs induction); higher = less antimicrobial activity (less host growth inhibition); conditions: time post-induction: 4.5 h; library: site-saturation at positions 5, 18, 19, 20
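Also: peptides expressed intracellularly from a pBAD plasmid library in pooled LB shake-flask culture, induced with 0.3% L-arabinose, DNA abundance read by NGS, three biological replicates, DESeq2 with apeglm shrinkage.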

Sequence | shrunken log2 fold change
RRIRGRPPRLPRPRPRPQKKPRP | 0.0788
RRIRGRPPRLPRPRPRPQLTPRP | 0.644
RRIRGRPPRLPRPRPRPQMEPRP | 0.473
RRIRGRPPRLPRPRPRPQMHPRP | 0.989
RRIRGRPPRLPRPRPRPQPKPRP | 0.884
RRIRGRPPRLPRPRPRPQRAPRP | 0.466
RRIRGRPPRLPRPRPRPQRNPRP | 0.473
RRIRGRPPRLPRPRPRPQRPPRP | 0.406
RRIRGRPPRLPRPRPRPQSVPRP | -0.199
RRIRGRPPRLPRPRPRPQWAPRP | 0.498
RRIRGRPPRLPRPRPRPQWHPRP | 0.0863
RRIRGRPPRLPRPRPRPQWRPRP | 0.612
RRIRGRPPRLPRPRPRPQYKPRP | -0.136
RRIRGRPPRLPRPRPRPRAQPRP | 0.778
RRIRGRPPRLPRPRPRPRATPRP | 1.72
RRIRGRPPRLPRPRPRPRCHPRP | 0.564
RRIRGRPPRLPRPRPRPRDKPRP | 0.373
RRIRGRPPRLPRPRPRPRECPRP | 0.562
RRIRGRPPRLPRPRPRPREWPRP | 0.843
RRIRGRPPRLPRPRPRPRHCPRP | 0.764
RRIRGRPPRLPRPRPRPRHFPRP | 0.379
RRIRGRPPRLPRPRPRPRHSPRP | 0.242
RRIRGRPPRLPRPRPRPRKFPRP | 0.399
RRIRGRPPRLPRPRPRPRKWPRP | 0.413
RRIRGRPPRLPRPRPRPRLTPRP | 0.948

Sequence | shrunken log2 fold change
RRIRGRPPRLPRPRPRPRRKPRP | 0.742
RRIRGRPPRLPRPRPRPRSWPRP | 1.19
RRIRGRPPRLPRPRPRPRTSPRP | 0.763
RRIRGRPPRLPRPRPRPRVYPRP | 0.35
RRIRGRPPRLPRPRPRPRWIPRP | 0.152
RRIRGRPPRLPRPRPRPRWMPRP | 0.297
RRIRGRPPRLPRPRPRPRYLPRP | 0.282
RRIRGRPPRLPRPRPRPSAMPRP | 0.989
RRIRGRPPRLPRPRPRPSCLPRP | 0.571
RRIRGRPPRLPRPRPRPSCQPRP | 0.925
RRIRGRPPRLPRPRPRPSDQPRP | 0.796
RRIRGRPPRLPRPRPRPSEKPRP | 1.49
RRIRGRPPRLPRPRPRPSFIPRP | -0.166
RRIRGRPPRLPRPRPRPSFYPRP | 0.00205
RRIRGRPPRLPRPRPRPSHVPRP | -0.141
RRIRGRPPRLPRPRPRPSIAPRP | 0.669
RRIRGRPPRLPRPRPRPSLCPRP | 1.73
RRIRGRPPRLPRPRPRPSPKPRP | 0.619
RRIRGRPPRLPRPRPRPSPPPRP | 0.569
RRIRGRPPRLPRPRPRPSQLPRP | 0.461
RRIRGRPPRLPRPRPRPSQTPRP | 1.08
RRIRGRPPRLPRPRPRPSSEPRP | 0.351
RRIRGRPPRLPRPRPRPSTDPRP | 0.899
RRIRGRPPRLPRPRPRPSTTPRP | 0.875
RRIRGRPPRLPRPRPRPSYHPRP | -0.299

Sequence | shrunken log2 fold change
RRIRGRPPRLPRPRPRPTACPRP | 1.35
RRIRGRPPRLPRPRPRPTAWPRP | 1.84
RRIRGRPPRLPRPRPRPTCNPRP | 0.7
RRIRGRPPRLPRPRPRPTDKPRP | 0.705
RRIRGRPPRLPRPRPRPTDSPRP | 0.526
RRIRGRPPRLPRPRPRPTEGPRP | 0.795
RRIRGRPPRLPRPRPRPTFWPRP | 1.51
RRIRGRPPRLPRPRPRPTHGPRP | 0.487
RRIRGRPPRLPRPRPRPTKIPRP | 0.462
RRIRGRPPRLPRPRPRPTKLPRP | 0.38
RRIRGRPPRLPRPRPRPTKNPRP | 0.69
RRIRGRPPRLPRPRPRPTMSPRP | 0.496
RRIRGRPPRLPRPRPRPTMYPRP | 0.032
RRIRGRPPRLPRPRPRPTNWPRP | 0.485
RRIRGRPPRLPRPRPRPTQIPRP | 1.38
RRIRGRPPRLPRPRPRPTRYPRP | 0.357
RRIRGRPPRLPRPRPRPTSIPRP | 0.129
RRIRGRPPRLPRPRPRPTSTPRP | 1.05
RRIRGRPPRLPRPRPRPTTEPRP | 0.836
RRIRGRPPRLPRPRPRPTWEPRP | 0.031
RRIRGRPPRLPRPRPRPTWMPRP | 0.599
RRIRGRPPRLPRPRPRPTWWPRP | 0.906
RRIRGRPPRLPRPRPRPTYRPRP | 0.138
RRIRGRPPRLPRPRPRPTYSPRP | -0.0883
RRIRGRPPRLPRPRPRPTYTPRP | 0.249

Sequence | shrunken log2 fold change
RRIRGRPPRLPRPRPRPVAPPRP | 1.18
RRIRGRPPRLPRPRPRPVAQPRP | 0.719
RRIRGRPPRLPRPRPRPVCDPRP | 0.959
RRIRGRPPRLPRPRPRPVCQPRP | 0.664
RRIRGRPPRLPRPRPRPVDVPRP | 0.447
RRIRGRPPRLPRPRPRPVFEPRP | 1.16
RRIRGRPPRLPRPRPRPVFWPRP | 0.768
RRIRGRPPRLPRPRPRPVGNPRP | 0.204
RRIRGRPPRLPRPRPRPVHSPRP | 0.0124
RRIRGRPPRLPRPRPRPVIRPRP | 0.177
RRIRGRPPRLPRPRPRPVLCPRP | 0.635
RRIRGRPPRLPRPRPRPVLPPRP | 0.383
RRIRGRPPRLPRPRPRPVMWPRP | 0.932
RRIRGRPPRLPRPRPRPVNNPRP | -0.0355
RRIRGRPPRLPRPRPRPVPAPRP | 1
RRIRGRPPRLPRPRPRPVRAPRP | 1.01
RRIRGRPPRLPRPRPRPVSAPRP | 0.676
RRIRGRPPRLPRPRPRPVYLPRP | -0.33
RRIRGRPPRLPRPRPRPVYYPRP | 0.164
RRIRGRPPRLPRPRPRPWCNPRP | -0.276
RRIRGRPPRLPRPRPRPWCPPRP | 0.236
RRIRGRPPRLPRPRPRPWDNPRP | -0.0364
RRIRGRPPRLPRPRPRPWDWPRP | 1.2
RRIRGRPPRLPRPRPRPWEPPRP | 0.177
RRIRGRPPRLPRPRPRPWEWPRP | 0.911

Sequence | shrunken log2 fold change
RRIRGRPPRLPRPRPRPWFKPRP | -0.824
RRIRGRPPRLPRPRPRPWFLPRP | -0.149
RRIRGRPPRLPRPRPRPWFTPRP | -0.221
RRIRGRPPRLPRPRPRPWGIPRP | 0.0344
RRIRGRPPRLPRPRPRPWHCPRP | -0.0173
RRIRGRPPRLPRPRPRPWIDPRP | -0.103
RRIRGRPPRLPRPRPRPWIEPRP | -0.0591
RRIRGRPPRLPRPRPRPWIKPRP | -0.0249
RRIRGRPPRLPRPRPRPWISPRP | -0.191
RRIRGRPPRLPRPRPRPWKRPRP | -0.0496
RRIRGRPPRLPRPRPRPWMCPRP | -0.13
RRIRGRPPRLPRPRPRPWPMPRP | 0.31
RRIRGRPPRLPRPRPRPWQEPRP | -0.0457
RRIRGRPPRLPRPRPRPWQGPRP | 0.015
RRIRGRPPRLPRPRPRPWQNPRP | 0.041
RRIRGRPPRLPRPRPRPWQPPRP | -0.12
RRIRGRPPRLPRPRPRPWRHPRP | -0.0287
RRIRGRPPRLPRPRPRPWTDPRP | -0.211
RRIRGRPPRLPRPRPRPWTGPRP | -0.0411
RRIRGRPPRLPRPRPRPWTVPRP | -0.0833
RRIRGRPPRLPRPRPRPWWHPRP | -0.22
RRIRGRPPRLPRPRPRPWWLPRP | 0.0131
RRIRGRPPRLPRPRPRPWYCPRP | -0.408
RRIRGRPPRLPRPRPRPWYQPRP | 0.0417
RRIRGRPPRLPRPRPRPYCEPRP | 0.22

Sequence | shrunken log2 fold change
RRIRGRPPRLPRPRPRPYDTPRP | -0.0956
RRIRGRPPRLPRPRPRPYERPRP | -1.8
RRIRGRPPRLPRPRPRPYGTPRP | -0.0646
RRIRGRPPRLPRPRPRPYHAPRP | 0.142
RRIRGRPPRLPRPRPRPYHHPRP | -0.176
RRIRGRPPRLPRPRPRPYHKPRP | -0.331
RRIRGRPPRLPRPRPRPYIGPRP | 0.018
RRIRGRPPRLPRPRPRPYILPRP | -0.614
RRIRGRPPRLPRPRPRPYLNPRP | -0.233
RRIRGRPPRLPRPRPRPYMDPRP | -0.0735
RRIRGRPPRLPRPRPRPYMNPRP | -0.23
RRIRGRPPRLPRPRPRPYNFPRP | -0.35
RRIRGRPPRLPRPRPRPYNQPRP | -0.104
RRIRGRPPRLPRPRPRPYNWPRP | -0.225
RRIRGRPPRLPRPRPRPYPCPRP | -0.0571
RRIRGRPPRLPRPRPRPYQCPRP | -0.0235
RRIRGRPPRLPRPRPRPYQMPRP | -0.0136
RRIRGRPPRLPRPRPRPYQPPRP | -0.257
RRIRGRPPRLPRPRPRPYSAPRP | -0.29
RRIRGRPPRLPRPRPRPYSMPRP | 0.00971
RRIRGRPPRLPRPRPRPYTAPRP | -0.455
RRIRGRPPRLPRPRPRPYVYPRP | -0.0911
RRIRGRPPRLPRPRPRPYWAPRP | 0.211
RRIRGRPPRLPRPRPRPYWMPRP | -0.34
RRIRHRPPRLPRPRPRPACGPRP | 0.216
